Laboratory results published in PMC6208443 (2018).
Square brackets hold non-standard residues; d marks the D form. Ends that are not written are not given here. Lys(Me3) = C[N+](C)(C)CCCC[C@H](N)C(=O)O; Lys(Me2) = CN(C)CCCC[C@H](N)C(=O)O; Lys(Me) = CNCCCC[C@H](N)C(=O)O

T1: RsAGDP1 AGD12 (residues 26–180) (Raphanus sativus)
T1 chain: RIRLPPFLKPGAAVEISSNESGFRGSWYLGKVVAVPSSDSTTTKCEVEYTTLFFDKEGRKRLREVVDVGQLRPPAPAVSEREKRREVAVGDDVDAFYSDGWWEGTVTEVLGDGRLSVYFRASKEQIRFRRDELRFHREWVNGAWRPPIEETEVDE


Experiments:
Experiment in all cases: ITC
[1] = target: T1, RsAGDP1 AGD12 (residues 26–180)
RsAGDP1 AGD34 = target: RsAGDP1 AGD34
RsAGDP1 AGD56 = target: RsAGDP1 AGD56

Row | Kd [1] | Kd (RsAGDP1 AGD34) | Kd (RsAGDP1 AGD56) | Binder
1 | 103 µM |  |  | ART[Lys(Me3)]QTAR[Lys(Me2)]STGGKA [H3K4me3K9me2 peptide]
2 | 101 µM | 10.7 µM | 52.9 µM | ARTKQTARKSTGGKA (trimethyl-lysine at K9) [H3K9me3 peptide (ITC)]
3 |  |  | 26.2 µM | ARTKQTARKSTGGKA (dimethyl-lysine at K9) [H3K9me2 peptide (ITC)]
4 | 84.7 µM | 10.1 µM | 50 µM | ARTKQTARKSTGGKA (monomethyl-lysine at K9) [H3K9me1 peptide (ITC)]
5 | 23.4 µM |  |  | ART[Lys(Me)]QTAR[Lys(Me2)]STGGKA [H3K4me1K9me2 peptide]
6 | 25.5 µM |  |  | ART[Lys(Me2)]QTAR[Lys(Me2)]STGGKA [H3K4me2K9me2 peptide]
